Two molecules from publication PMC4970670, “Mek1 Down Regulates Rad51 Activity during Yeast Meiosis by Phosphorylation of Hed1” (PLoS Genetics, 2016) can be followed below.

Substitutions are numbered along the chain they refer to.

The target in this assay is T1, Rad51 (S. cerevisiae, UniProt P25454 1-400).
T1 construct: Rad51 recombinase of S. cerevisiae; Used as 0.6 ug of protein in the pull-down
T1 sequence (looked up): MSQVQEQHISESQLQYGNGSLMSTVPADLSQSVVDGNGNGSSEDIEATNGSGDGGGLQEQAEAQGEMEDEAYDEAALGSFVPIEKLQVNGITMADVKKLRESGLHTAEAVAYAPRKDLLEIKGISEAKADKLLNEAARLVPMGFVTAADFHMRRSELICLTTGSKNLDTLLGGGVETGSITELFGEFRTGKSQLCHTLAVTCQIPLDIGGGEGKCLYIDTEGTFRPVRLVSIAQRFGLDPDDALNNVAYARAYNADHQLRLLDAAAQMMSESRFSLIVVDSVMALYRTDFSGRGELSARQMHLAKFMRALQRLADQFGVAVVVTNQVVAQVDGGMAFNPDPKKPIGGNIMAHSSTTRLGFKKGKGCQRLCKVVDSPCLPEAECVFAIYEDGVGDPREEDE
Nature of the assay: pull-down; GST-Hed1 WT or 3A (0.6 ug) incubated with Rad51 (0.6 ug), affinity pull-down with Glutathione Sepharose beads; supernatant, wash and SDS-eluate analysed by SDS-PAGE and Coomassie staining. To be noted: both partners purified.

B1: GST-Hed1 (natural protein, S. cerevisiae, UniProt Q03937 1-162, looked up)
chain: MQQRSNRRSCSYIPLGVHNNAEKSLCTEVAPARKNKRSITTSPIVNINVVERRLFNLELEKQQLRAKNLSENTGGGSPNGGAYLDAKKGVREQDQYQGGPSKELDRLQPPPSMKKSPPRKKKSLKDLIYETNKTFYQVDSNKVKYKVGLSKKQLLPSKTVDN
notes: Hed1, meiosis-specific protein of S. cerevisiae; also called GST-Hed1 WT; recombinant GST-Hed1; source: E. coli, purified
Take B1: the binding result is recorded as “binds”.

B2: GST-Hed1-3A (natural protein, S. cerevisiae, UniProt Q03937 1-162, looked up)
chain: B1 chain with T40A, T41A, S42A
notes: Hed1, meiosis-specific protein of S. cerevisiae, with T40, T41 and S42 all substituted with alanine; source: E. coli, purified
In the case of B2, the binding result is “binds”.
